{"source": "paper PMC7764402", "biological_target": "Vorin-cat (C-terminal catalytic mART domain of Vorin), wild type (Erwinia amylovora ATCC BAA-2158)", "test": "SEC; IMAC-purified Vorin-cat/VorinI (5 mg) on HiLoad 16/60 Superdex-200; fractions analysed by SDS-PAGE with Coomassie stain; dialysed against 50 mM Tris pH 7.5, 250 mM NaCl, 10% glycerol before the run"}
{"substance": "VorinI (Vorin Immunity protein) (natural protein)", "values": [{"measurement": "stoichiometry N (VorinI per Vorin-cat)", "value": 1}]}
